From patent US20230020729A1 (Memorial Sloan Kettering, published 2023)

T1: human Fc Receptor-Like 5 (FcRL5), full length, expressed on cells (human, UniProt Q96RD9 16-977)
T1 construct: also called CD307e; IRTA2
T1 sequence: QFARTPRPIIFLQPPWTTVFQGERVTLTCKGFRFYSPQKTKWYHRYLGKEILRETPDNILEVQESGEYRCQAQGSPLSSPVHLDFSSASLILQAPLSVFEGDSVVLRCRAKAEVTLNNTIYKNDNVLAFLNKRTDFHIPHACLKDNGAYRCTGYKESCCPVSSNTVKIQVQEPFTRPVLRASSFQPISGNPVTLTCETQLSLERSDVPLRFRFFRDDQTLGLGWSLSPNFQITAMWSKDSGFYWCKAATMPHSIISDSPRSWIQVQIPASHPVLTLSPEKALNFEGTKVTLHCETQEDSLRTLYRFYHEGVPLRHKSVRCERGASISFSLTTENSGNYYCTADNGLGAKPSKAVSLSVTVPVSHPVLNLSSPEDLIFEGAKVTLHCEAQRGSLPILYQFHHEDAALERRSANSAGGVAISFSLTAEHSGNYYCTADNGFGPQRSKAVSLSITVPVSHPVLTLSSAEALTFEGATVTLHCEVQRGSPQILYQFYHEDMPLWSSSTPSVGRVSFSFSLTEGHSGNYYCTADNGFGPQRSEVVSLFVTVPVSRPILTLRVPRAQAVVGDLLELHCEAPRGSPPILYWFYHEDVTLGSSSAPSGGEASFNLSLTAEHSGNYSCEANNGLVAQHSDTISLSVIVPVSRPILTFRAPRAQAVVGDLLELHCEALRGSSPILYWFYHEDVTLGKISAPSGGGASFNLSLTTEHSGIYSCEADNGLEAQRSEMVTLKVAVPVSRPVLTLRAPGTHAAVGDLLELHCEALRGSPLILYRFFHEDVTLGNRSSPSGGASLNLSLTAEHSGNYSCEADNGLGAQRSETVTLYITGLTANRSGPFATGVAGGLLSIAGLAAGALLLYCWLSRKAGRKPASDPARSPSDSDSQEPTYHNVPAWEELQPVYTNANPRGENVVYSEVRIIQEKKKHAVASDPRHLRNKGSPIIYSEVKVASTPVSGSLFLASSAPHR


Target: T1, human Fc Receptor-Like 5 (FcRL5), full …
Experiment: scFv phage: ELISA on His-tag FcRL5, flow cytometry on FcRL5-overexpressing 3T3 and Raji cells

Binder	binding result
ET200-031 scFv (scFv, VL-linker-VH; screened as scFv phage clone; also called ET200-31) scFv: SYVLTQPPSVSVAPGKTARITCGGNNIGSKSVHWYQQKPGQAPVLVIYYDSDRPSGIPERFSGSNSGNTATLTISRVEAGDEADYYCQVWDSSSDYVFGTGTKVTVLGSRGGGGSGGGGSGGGGSLEMAEVQLVETGGGLVKPGGSLRLSCAASGFTVSDYYMSWIRQAPGKGLEWISYISGSGNSIYYADSVKGRFTISRDNAKNSLDLQMTSLRAEDTAVYYCARSTKFDYWGQGTLVTVSS	binds
ET200-042 scFv (scFv, VL-linker-VH; screened as scFv phage clone) scFv: QSVVTQPPSVSGAPGQTVTISCTGGSSNIGTGYFVNWYQQVPGKAPKLLILGNNNRPSGVPDRLSGSTSGTSASLAITGLQAEDEGTYYCQSYDSSLSGYVFGTGTKVTVLGSRGGGGSGGGGSGGGGSLEMAQVQLQQSGPGLVKPSQTLSLTCGISGDSVSTNSVAWHWIRQSPSRGLEWLGRTYYRSKWSNDYGVSVKSRITIIPDTSKNQFSLQLNSVTPEDTAVYYCARSSSWYQIFDYWGQGTLVTVSS	binds
ET200-040 scFv (scFv, VL-linker-VH; screened as scFv phage clone) scFv: QSVLTQPPSVSGAPGQRVTISCTGSSSNIGAGYDVHWYQQLPGTAPKLLIYGNSNRPSGVPDRFSGSKSGTSASLAITGLQAEDEADYYCQSYDSSLSGYVFGTGTKVTVLGSRGGGGSGGGGSGGGGSLEMAQVQLVQSGAEVKKPGASVKVSCKVSGYTLTELSMHWVRQAPGKGLEWMGGFDPEDGETIYAQKFQGRVTMTEDTSTDTAYMELSSLRSEDTAVYYCARYSGVYYDWGQGTLVTVSS	binds
ET200-069 scFv (scFv, VL-linker-VH; screened as scFv phage clone; also called ET200-69) scFv: QSVVTQPPSASGTPGQRVTISCSGSSSNIGSNYVYWYQQLPGTAPKLLIYSNNQRPSGVPDRFSGSKSGTSASLAISGLRSEDEADYYCAAWDDSLSGYVFGTGTKLTVLGSRGGGGSGGGGSGGGGSLEMAQVQLQQWGAGLLKPSETLSLTCAVYGGSFSGYYWSWIRQPPGKGLEWIGEINHSGSTNYNPSLKSRVTISVDTSKNQFSLKLSSVTAADTAVYYCARLYEGGYHGWGSWLSSDSWGQGTLVTVSS	binds
ET200-044 scFv (scFv, VL-linker-VH; screened as scFv phage clone) scFv: QSVLTQPPSVSVSPGQTATIACSGHKLGDKYASWYQQKSGQSPVLIIYQDNKRPSGIPERFSGSNSGNTATLTISGTQALDEADYYCQAWDSSTYVAFGGGTKLTVLGSRGGGGSGGGGSGGGGSLEMAQVQLQESGPGLVKPSETLSLTCVVSGGSISSSNWWSWVRQPPGKGLEWIGEIYHSGSPNYNPSLKSRVTISVDKSKNQFSLKLSSVTAADTAVYYCARMTTHTFGYDAWGQGTLVTVSS	binds
ET200-045 scFv (scFv, VL-linker-VH; screened as scFv phage clone) scFv: QPVLTQPPSVSVAPGKTATITCGGNNIGSESVHWYHQKPGQAPVLVIYDDAGRPSGIPERFTGSNSGNTATLTISRVEAGDEADYYCQVWDRNSAQFVFGPGTKVTVLGSRGGGGSGGGGSGGGGSLEMAEVQLVQSGAEVKKPGASVKVSCKASGYTFTSYGISWVRQAPGQGLEWMGWISAYNGNTNYAQKLQGRVTMTTDTSTSTAYMELRSLRSDDTAVYYCARGVHLDWWGQGTLVTVSS	binds
ET200-079 scFv (scFv, VL-linker-VH; screened as scFv phage clone) scFv: SYELTQPPSASGTPGQRVTISCSGSSSNIGSNYVYWYQQLPGTAPKLFIYRNNQRPSGVPDRFSGSKSGTSASLAISGLRSEDEADYYCAAWDDSLSGYLFGTGTKVTVLGSRGGGGSGGGGSGGGGSLEMAEVQLVESGGGLVQPGRSLRLSCAASGFTFDDYAMHWVRQAPGKGLEWVSGISWNSGSIGYADSVKGRFTISRDNAKNSLYLQMNSLRAEDTALYYCANGDSNYYYGMDVWGQGTTVTVSS	binds
ET200-028 scFv (scFv, VL-linker-VH; screened as scFv phage clone) scFv: QSVLTQPPAASGTPGQRVTISCSGGVSNIGSGALNWYQQLPGTAPKLLIYSYNQRPSGVSDRFSGSRSATSASLAISGLQSEDEADYYCATWDDSVNGWVFGGGTKLTVLGSRGGGGSGGGGSGGGGSLEMAQVQLVQSGAEVKKPGDSVKVSCKPSGYNFLNYGINWVRQAPGQGLEWMGWISTYTGNTNYAQKLQGRVTFTTDTSTSTAYMEMRSLRSDDTAVYYCARDLYYYEGVDYWGQGTLVTVSS	binds
ET200-029 scFv (scFv, VL-linker-VH; screened as scFv phage clone) scFv: QAVLTQPPSVSVAPGKTARVTCGGNNIGSESVHWYQQKPGQAPVLVIYYDTDRPSGIPERFSGSHSGTTATLTISRVEAGDEADYYCQVWDSSRDHVVFGGGTKLTVLGSRGGGGSGGGGSGGGGSLEMAQVQLVQSGGGVVQPGRSLRLSCAASGFTFSSYAMHWVRQAPGKGLEWVAVISYDGSNKYYADSVKGLFTISRDNSKNTLYLQMNSLRAEDTAVYYCARSYFTSGFYDYWGQGTLVTVSS	binds
ET200-041 scFv (scFv, VL-linker-VH; screened as scFv phage clone) scFv: NFMLTQPHSVSGSPGKTVTISCTGSSGSIADNFVQWYQQRPGGVPTTVIFNDDERPSGVPDRFSGSIDTSSNSASLTISGLKTEDEADYYCQSYDNNNRGVFGGGTKLTVLGSRGGGGSGGGGSGGGGSLEMAQVQLVQSGAEVKKPGSSVKVSCKASGGTFSSYAISWVRQAPGQGLEWMGWMNPNSGNTGYAQKFQGRVTMTRNTSISTAYMELSNLRSEDTAVYYCARYYSYGYDWGQGTLVTVSS	binds
ET200-034 scFv (scFv, VL-linker-VH; screened as scFv phage clone) scFv: QSVLTQPPSVSGAPGQRVTISCTGSTSNIGAGYDVHWYQQLPGTAPKLLINNNRNRPSGVPDRFSGSKSGTSATLGITGLQTGDEADYYCGTWDGSLTGAVFGGGTKLTVLGSRGGGGSGGGGSGGGGSLEMAEVQLVQSGAEVKKPGSSVKVSCKASGGTFSSYAISWVRQAPGQGLEWMGGIIPIFGTANYAQKFQGRVTITADESTSTAYMELSSLRSEDTAVYYCARGSALDHYDRWGQGTLVTVSS	binds
ET200-033 scFv (scFv, VL-linker-VH; screened as scFv phage clone) scFv: NFMLTQPHSVSESPGKTVTISCTGSSGSIASNYVQWYQQRPGSAPTTVIYEDNQRPSGVPDRFSGSIDSSSNSASLTISGLKTEDEADYYCQSYDSSNHWVFGGGTKLTVLGSRGGGGSGGGGSGGGGSLEMAQVQLQQWGAGLLKPSETLSLTCAVYGGSFSGYYWSWIRQPPGKGLEWIGEITHSGRSNYNPSLKSRVTISVDTSKNQFSLKLSSVTAADTAVYYCARSSIMSDYWGQGTLVTVSS	binds
ET200-032 scFv (scFv, VL-linker-VH; screened as scFv phage clone) scFv: LPVLTQPPSASGTPGQRVTISCSGSSSNVGSYTVNWYRQLPGTAPTLLIYNNNQRPSGVPDRFSDSKSGTSASLTISGLQPEDEADYYCAAWDDRLGGYVFGTGTKVTVLGSRGGGGSGGGGSGGGGSLEMAEVQLVQSGAEVKKPGESLKISCKGSGYSFTNYWIGWVRQMPGKGLEWMGIIYPGDSDTRYSPSFQGQVTISADKSISTAYLQWSSLKASDTAMYYCARSTGSSHMSDEWGQGTLVTVSS	binds
ET200-038 scFv (scFv, VL-linker-VH; screened as scFv phage clone) scFv: QSVLTQPPSVSGAPGQRVTISCTGSSSNIGAGFDVHWYQLLPGTAPKLLIYANSNRPSGVPDRFSGSKSGTSASLAITGLLAEDEADYYCQSYDSSLSGVVFGGGTKLTVLGSRGGGGSGGGGSGGGGSLEMAQVQLVQSGAEVKKPGSSVKVSCKASGGTFSSYAISWVRQAPGQGLEWMGGIIPIFGTANYAQKFQGRVTITADESTSTAYMELSSLRSEDTAVYYCARGASFDRHDNWGQGTLVTVSS	binds
ET200-006 scFv (scFv, VL-linker-VH; screened as scFv phage clone) scFv: SYVLTQPPSVSVAPGKTARITCGGNNIGSKSVHWYQQKPGQAPVVVIHYDSDRPSGIPERFSGSNSGNTATLTISRVEAGDEADYYCQVWDSSSDHPYVFGTGTKVTVLGSRGGGGSGGGGSGGGGSLEMAEVQLVQSGAEVKKPGASVKVSCKASGYTFTTYGISWVRQAPGQGLEWMGWINTYNGHTNYAQKLQGRATMTADTSTNTAYMELRSLRSDDTAVYYCARVIYGSGDYWGQGTLVTVSS	binds
ET200-003 scFv (scFv, VL-linker-VH; screened as scFv phage clone) scFv: QSVLTQPPSVSVSPGQTASISCSGNKLGTKYVYWYQKRPGQSPVLVMYEDNQRPSGIPERFSGSNSGNTATLTIRGTQTVDEADYYCQAWDSDTFVVFGGGTKVTVLGSRGGGGSGGGGSGGGGSLEMAEVQLVETGGGVVQPGRSLRLSCAASGFTFSSYGMHWVRQAPGKGLEWVAVISHDGSNKYYADSVKGRFTISRDNSKDTLYLQMNSLRGEDTAVYYCARSNQWSGYFSFDYWGQGTLVTVSS	binds
ET200-030 scFv (scFv, VL-linker-VH; screened as scFv phage clone) scFv: QSVVTQPPSVSGAPGQRVTISCTGSSSNIGAGYDVNWYQQFPGTAPKLLIYGNSNRPSGVPDRFSGSKSGTSASLAITGLQAEDEADYYCQSYDSSLSGSYVFGTGTKVTVLGSRGGGGSGGGGSGGGGSLEMAQMQLVQSGAEVKKPGASVKVSCKASGYTLTELSMHWVRQAPGKGLEWMGGFDPEDGETIYAQKFQGRVTMTEDTSTDTAYMELSSLRSEDTAVYYCARMSSMYYDWGQGTLVTVSS	binds
